From CN112125972A (SINOCELLTECH LTD, dated 2020)

What was measured:
[1] = target: T1, HPV16 L1 VLP蛋白 (Human papillomavirus type 16); assay: indirect ELISA, VLP coated at 2 μg/mL, antibody at 10 ng/mL
T1 construct: Intact virus-like particle of L1; also called HPV16 VLP; HPV16 VLP蛋白

[2] = target: T2, HPV31 VLP (Human papillomavirus type 31, UniProt P17388 1-504); assay: as above
T2 construct: also called HPV31完整VLP蛋白
T2 sequence: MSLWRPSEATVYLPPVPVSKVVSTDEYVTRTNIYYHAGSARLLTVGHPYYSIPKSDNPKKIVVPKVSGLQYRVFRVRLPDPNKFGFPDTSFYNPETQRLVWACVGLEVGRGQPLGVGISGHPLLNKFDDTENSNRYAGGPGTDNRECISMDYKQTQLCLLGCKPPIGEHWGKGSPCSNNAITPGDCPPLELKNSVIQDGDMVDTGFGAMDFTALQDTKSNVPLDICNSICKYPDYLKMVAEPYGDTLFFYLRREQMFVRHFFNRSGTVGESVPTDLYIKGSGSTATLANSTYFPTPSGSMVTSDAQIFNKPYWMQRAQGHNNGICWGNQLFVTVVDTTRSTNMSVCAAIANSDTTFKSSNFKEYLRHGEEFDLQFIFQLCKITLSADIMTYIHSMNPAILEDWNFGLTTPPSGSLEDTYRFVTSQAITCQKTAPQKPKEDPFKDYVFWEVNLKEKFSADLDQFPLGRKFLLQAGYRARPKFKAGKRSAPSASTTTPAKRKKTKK

[3] = target: T3, HPV52 VLP (Human papillomavirus type 52, UniProt Q05138 27-529); assay: as above
T3 construct: also called HPV52完整VLP蛋白
T3 sequence: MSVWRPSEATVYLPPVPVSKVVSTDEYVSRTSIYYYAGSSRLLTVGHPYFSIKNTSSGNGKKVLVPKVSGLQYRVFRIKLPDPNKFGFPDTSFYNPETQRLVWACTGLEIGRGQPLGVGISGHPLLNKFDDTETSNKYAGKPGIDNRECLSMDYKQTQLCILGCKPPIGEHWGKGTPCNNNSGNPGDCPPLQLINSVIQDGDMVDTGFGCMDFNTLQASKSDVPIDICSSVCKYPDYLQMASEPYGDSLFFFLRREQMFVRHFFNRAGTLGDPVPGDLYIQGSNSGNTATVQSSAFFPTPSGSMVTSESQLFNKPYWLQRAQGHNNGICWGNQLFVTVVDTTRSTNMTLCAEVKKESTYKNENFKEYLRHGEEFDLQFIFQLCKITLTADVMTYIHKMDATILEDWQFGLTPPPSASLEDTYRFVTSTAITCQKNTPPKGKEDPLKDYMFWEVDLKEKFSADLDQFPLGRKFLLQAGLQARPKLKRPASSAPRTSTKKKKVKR

[4] = target: T4, HPV58 VLP (Human papillomavirus type 58, UniProt P26535 27-524); assay: indirect ELISA, VLP coated at 2 μg/mL
T4 construct: also called HPV58完整VLP蛋白
T4 sequence: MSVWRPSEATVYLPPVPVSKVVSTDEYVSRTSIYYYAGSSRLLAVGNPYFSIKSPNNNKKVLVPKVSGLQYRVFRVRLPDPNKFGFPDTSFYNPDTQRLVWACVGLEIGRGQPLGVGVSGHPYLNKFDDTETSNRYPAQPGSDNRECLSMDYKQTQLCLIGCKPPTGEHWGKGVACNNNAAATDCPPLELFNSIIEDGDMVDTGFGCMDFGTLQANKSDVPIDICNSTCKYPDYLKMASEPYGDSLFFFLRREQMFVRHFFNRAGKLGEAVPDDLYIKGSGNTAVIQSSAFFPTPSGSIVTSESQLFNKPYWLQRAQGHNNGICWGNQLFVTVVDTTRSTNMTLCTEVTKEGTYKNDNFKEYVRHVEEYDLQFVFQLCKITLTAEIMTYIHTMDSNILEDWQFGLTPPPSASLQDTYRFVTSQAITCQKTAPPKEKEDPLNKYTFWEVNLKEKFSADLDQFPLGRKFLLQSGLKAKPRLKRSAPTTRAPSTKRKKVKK

[5] = target: T5, HPV56 VLP (Human papillomavirus type 56, UniProt P36743 36-534); assay: indirect ELISA, VLP coated at 2 μg/mL
T5 construct: also called HPV56完整VLP蛋白
T5 sequence: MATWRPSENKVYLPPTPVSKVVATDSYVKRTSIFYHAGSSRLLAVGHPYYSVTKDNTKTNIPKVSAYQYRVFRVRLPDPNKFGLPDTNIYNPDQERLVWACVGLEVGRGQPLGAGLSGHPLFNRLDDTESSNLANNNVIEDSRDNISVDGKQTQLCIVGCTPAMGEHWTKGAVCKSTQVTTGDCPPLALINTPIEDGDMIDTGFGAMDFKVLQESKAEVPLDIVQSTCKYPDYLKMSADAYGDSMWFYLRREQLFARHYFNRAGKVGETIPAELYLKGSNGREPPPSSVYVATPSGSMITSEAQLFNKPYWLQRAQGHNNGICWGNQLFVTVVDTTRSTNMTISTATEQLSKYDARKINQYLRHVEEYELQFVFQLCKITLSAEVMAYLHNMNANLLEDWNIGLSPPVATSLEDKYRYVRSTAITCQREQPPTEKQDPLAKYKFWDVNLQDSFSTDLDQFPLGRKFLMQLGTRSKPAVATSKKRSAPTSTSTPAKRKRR

[6] = target: T6, HPV6 VLP (Human papillomavirus type 6, UniProt P69899 1-500); assay: indirect ELISA, VLP coated at 2 μg/mL
T6 construct: also called HPV6完整VLP蛋白
T6 sequence: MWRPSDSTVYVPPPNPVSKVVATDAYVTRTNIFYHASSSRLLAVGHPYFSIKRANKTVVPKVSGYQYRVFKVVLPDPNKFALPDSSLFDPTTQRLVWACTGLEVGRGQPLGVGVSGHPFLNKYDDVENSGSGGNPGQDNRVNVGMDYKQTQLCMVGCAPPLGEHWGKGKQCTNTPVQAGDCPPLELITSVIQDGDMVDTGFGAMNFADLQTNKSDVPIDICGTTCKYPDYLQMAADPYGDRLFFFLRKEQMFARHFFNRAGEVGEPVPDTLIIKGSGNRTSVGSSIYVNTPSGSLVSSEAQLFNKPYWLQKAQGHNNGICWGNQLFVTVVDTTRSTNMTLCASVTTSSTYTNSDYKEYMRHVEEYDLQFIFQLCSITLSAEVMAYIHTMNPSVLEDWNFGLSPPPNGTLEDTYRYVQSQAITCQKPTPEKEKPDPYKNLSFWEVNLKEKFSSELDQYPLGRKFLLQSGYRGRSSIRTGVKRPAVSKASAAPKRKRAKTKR

[7] = target: T3, HPV52 VLP; assay: indirect ELISA, VLP coated at 2 μg/mL

B1: HPV 16 R001 (antibody, V domains shown)
VH: QSVKESEGRLVTPGTPLTLTCTASGFTMSRYHMTWVRQAPGKGLEWIGIIYARNSDTYYANWAKGRFTISKTSTTVDLKITSPTIEDTATYFCARVDSDSSGAFDRLDLWGQGTLVTVSS
VL: DPMLTQTAASVEVAVGGTVTIKCQASQSIGGYLSWYQQKPGQRPKLLIYRASTLASGVPSRFKGSGSGTEYTLTFSGVECADAAAYYCQQGYTSSDINNAFGGGTEVVVK
notes: An HRP-labelled form served as detection antibody in the sandwich ELISA; also called HPV16.001; 单克隆抗体HPV 16 R001
Question: How did the OD450-blank [1] turn out when B1 was run?
Answer: Its OD450-blank is 2.53 OD450.

Question: And the OD450-blank [2]?
Answer: Its OD450-blank is 0.002 OD450.

Question: What about the OD450-blank [3] of the same binder?
Answer: The OD450-blank was 0.003 OD450.

Question: Does B1 bind [4]?
Answer: Result: no binding (tested: 10ng/mL)

Question: Does B1 bind [5]?
Answer: Result: no binding (tested: 10ng/mL)

Question: Does B1 bind [6]?
Answer: Result: no binding (tested: 10ng/mL)

Question: Does B1 bind [7]?
Answer: Result: no binding (tested: 10ng/mL)
